Reference: PMC4933246

Experiments:
[1] = biological target: PHOX2B +13Ala fused to GAL4 BD or VP16 AD (human) (UniProt Q99453); test: two-hybrid; mammalian two-hybrid (CheckMate, Promega) in neuroblastoma SK-N-BE(2)C cells; GAL4 BD fusion (pBIND) and VP16 AD fusion (pACT), 80 fmol each, with 160 fmol pG5LUC; Dual-Luciferase assay
[2] = biological target: PHOX2A, MYC- or HA-tagged (human) (UniProt O14813)
[3] = biological target: PHOX2B +7Ala fused to GAL4 BD or VP16 AD (human) (UniProt Q99453); test: two-hybrid; mammalian two-hybrid (CheckMate, Promega) in neuroblastoma SK-N-BE(2)C cells; GAL4 BD fusion (pBIND) and VP16 AD fusion (pACT), 80 fmol each, with 160 fmol pG5LUC; Dual-Luciferase assay

Substance: PHOX2B +13Ala fused to GAL4 BD or VP16 AD (from UniProt Q99453 1-314) (natural protein)
- fold increase in luciferase activity [1]: 2 fold

Substance: PHOX2B +7 alanine mutant, MYC- or HA-tagged (from UniProt Q99453 1-314) (natural protein)
- luciferase activity of the DBH promoter reporter in HeLa cells co-transfected with PHOX2A and the PHOX2B +7 alanine mutant (fold over the empty vector) [2]: 23

Substance: PHOX2B +7Ala fused to GAL4 BD or VP16 AD (from UniProt Q99453 1-314) (natural protein)
- fold increase in luciferase activity [3]: 1.7 fold
